The assay deals with FhuA 13R1 (Escherichia coli) (UniProt P06971). The assay is described as follows: continuous wave EPR of spin-labelled protein.

The results in this text go back to paper PMC5811355.

UniProt P06971, sequence (P06971 34-747): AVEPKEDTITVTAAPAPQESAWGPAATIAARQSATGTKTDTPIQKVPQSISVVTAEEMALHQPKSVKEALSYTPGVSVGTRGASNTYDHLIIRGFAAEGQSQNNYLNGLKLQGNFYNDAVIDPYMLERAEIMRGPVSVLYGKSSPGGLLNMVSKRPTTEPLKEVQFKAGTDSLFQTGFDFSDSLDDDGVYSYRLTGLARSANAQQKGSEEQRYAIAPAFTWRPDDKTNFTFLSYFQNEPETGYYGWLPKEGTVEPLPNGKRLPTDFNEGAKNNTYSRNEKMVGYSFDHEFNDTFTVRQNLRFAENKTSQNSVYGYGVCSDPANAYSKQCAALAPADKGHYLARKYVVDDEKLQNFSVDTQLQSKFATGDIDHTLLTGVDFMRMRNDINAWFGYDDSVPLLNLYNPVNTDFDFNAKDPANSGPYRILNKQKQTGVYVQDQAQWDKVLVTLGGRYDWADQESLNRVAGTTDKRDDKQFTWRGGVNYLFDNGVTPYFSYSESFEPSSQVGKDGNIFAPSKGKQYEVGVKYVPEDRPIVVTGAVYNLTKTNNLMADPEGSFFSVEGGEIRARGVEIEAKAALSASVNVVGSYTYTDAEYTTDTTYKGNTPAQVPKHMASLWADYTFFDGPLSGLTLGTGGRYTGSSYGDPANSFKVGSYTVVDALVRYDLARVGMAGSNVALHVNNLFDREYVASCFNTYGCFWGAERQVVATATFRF

In turn, “TonB (103-239) (from UniProt P02929 103-239) (domain or fragment)” displayed a fraction of FhuA bound to TonB of 95%.
